In article PMC2171992 (The Journal of Cell Biology, 2004):

Columns and labels:
muscle actin [1] = biological target: T1, muscle actin (UniProt P68135 1-377, labeled with pyrene); assay: seeded actin assembly kinetics
muscle actin [2] = biological target: T1, muscle actin; assay: apparent critical concentration for actin polymerization at steady state
muscle actin [3] = biological target: T1, muscle actin; assay: as above; remark: listed apart in the source

| Kd (muscle actin [1]) | koff (muscle actin [1]) | kon (muscle actin [1]) | Kd (muscle actin [2]) | Kd (muscle actin [3]) | Binder |
| --- | --- | --- | --- | --- | --- |
| 8 nM | 0.017 s⁻¹ | 2.1e+06 M⁻¹ s⁻¹ | 25 nM | – | Cap1/Cap2Δ(264–287) (complex) chain 1: MSSSKFEEVINKIINDSPPGELREVYDDLIKITSENSKNTILDAIENYNVQNCIPIEVNGNSVIISKYNKEGAKFFDPVNSVIFSVNHLERKGLDIEPYEFTHAKIEKGQLKELHDKLHEYLLQSFPGDVSFAVYPVPEEISKISIIIVSTKYNPNNFWNGHWRSSYIYDLETRELSGQISTQVHYYEDGNVSFQSGKDINQSNVDDVVCTIRDIETNFENDLDLSFFDLNEKQFKALRRRLPVTRSKINWGSAIGSYRLGKNAAEGK chain 2: MSDAQFDAALDLLRRLNPTTLQENLNNLIELQPNLAQDLLSSVDVPLSTQKDSADSNREYLCCDYNRDIDSFRSPWSNTYYPELSPKDLQDSPFPSAPLRKLEILANDSFDVYRDLYYEGGISSVYLWDLNEEDFNGHDFAGVVLFKKNQSDHSNWDSIHVFEVTTSPSSPDSFNYRVTTTIILHLDKTKTDQNSHMMLSGNLTRQTEKDIAIDMSRPLDVIFTSHVANLGSLIEDIESQMRNLLETVYFEKTRDIFHQTKNA |
| 33400 nM | 0.012 s⁻¹ | 370 M⁻¹ s⁻¹ | – | – | Cap1Δ(239–268)/Cap2Δ(264–287) (complex) chain 1: MSSSKFEEVINKIINDSPPGELREVYDDLIKITSENSKNTILDAIENYNVQNCIPIEVNGNSVIISKYNKEGAKFFDPVNSVIFSVNHLERKGLDIEPYEFTHAKIEKGQLKELHDKLHEYLLQSFPGDVSFAVYPVPEEISKISIIIVSTKYNPNNFWNGHWRSSYIYDLETRELSGQISTQVHYYEDGNVSFQSGKDINQSNVDDVVCTIRDIETNFENDLDLSFFDLNEKQFKAL chain 2: MSDAQFDAALDLLRRLNPTTLQENLNNLIELQPNLAQDLLSSVDVPLSTQKDSADSNREYLCCDYNRDIDSFRSPWSNTYYPELSPKDLQDSPFPSAPLRKLEILANDSFDVYRDLYYEGGISSVYLWDLNEEDFNGHDFAGVVLFKKNQSDHSNWDSIHVFEVTTSPSSPDSFNYRVTTTIILHLDKTKTDQNSHMMLSGNLTRQTEKDIAIDMSRPLDVIFTSHVANLGSLIEDIESQMRNLLETVYFEKTRDIFHQTKNA |

The remaining lines, values behind:

| Binder | Kd (muscle actin [1]) | koff (muscle actin [1]) | kon (muscle actin [1]) | Kd (muscle actin [2]) | Kd (muscle actin [3]) |
| --- | --- | --- | --- | --- | --- |
| wild-type yeast capping protein (Cap1/Cap2) (complex) chain 1: MSSSKFEEVINKIINDSPPGELREVYDDLIKITSENSKNTILDAIENYNVQNCIPIEVNGNSVIISKYNKEGAKFFDPVNSVIFSVNHLERKGLDIEPYEFTHAKIEKGQLKELHDKLHEYLLQSFPGDVSFAVYPVPEEISKISIIIVSTKYNPNNFWNGHWRSSYIYDLETRELSGQISTQVHYYEDGNVSFQSGKDINQSNVDDVVCTIRDIETNFENDLDLSFFDLNEKQFKALRRRLPVTRSKINWGSAIGSYRLGKNAAEGK chain 2: MSDAQFDAALDLLRRLNPTTLQENLNNLIELQPNLAQDLLSSVDVPLSTQKDSADSNREYLCCDYNRDIDSFRSPWSNTYYPELSPKDLQDSPFPSAPLRKLEILANDSFDVYRDLYYEGGISSVYLWDLNEEDFNGHDFAGVVLFKKNQSDHSNWDSIHVFEVTTSPSSPDSFNYRVTTTIILHLDKTKTDQNSHMMLSGNLTRQTEKDIAIDMSRPLDVIFTSHVANLGSLIEDIESQMRNLLETVYFEKTRDIFHQTKNAAIASSAEEANKDAQAEVIRGLQSL | 1.2 nM | 0.00156 s⁻¹ | 1.16e+06 M⁻¹ s⁻¹ | 4 nM | – |
| Cap1/Cap2Δ(261–287) (complex) chain 1: MSSSKFEEVINKIINDSPPGELREVYDDLIKITSENSKNTILDAIENYNVQNCIPIEVNGNSVIISKYNKEGAKFFDPVNSVIFSVNHLERKGLDIEPYEFTHAKIEKGQLKELHDKLHEYLLQSFPGDVSFAVYPVPEEISKISIIIVSTKYNPNNFWNGHWRSSYIYDLETRELSGQISTQVHYYEDGNVSFQSGKDINQSNVDDVVCTIRDIETNFENDLDLSFFDLNEKQFKALRRRLPVTRSKINWGSAIGSYRLGKNAAEGK chain 2: MSDAQFDAALDLLRRLNPTTLQENLNNLIELQPNLAQDLLSSVDVPLSTQKDSADSNREYLCCDYNRDIDSFRSPWSNTYYPELSPKDLQDSPFPSAPLRKLEILANDSFDVYRDLYYEGGISSVYLWDLNEEDFNGHDFAGVVLFKKNQSDHSNWDSIHVFEVTTSPSSPDSFNYRVTTTIILHLDKTKTDQNSHMMLSGNLTRQTEKDIAIDMSRPLDVIFTSHVANLGSLIEDIESQMRNLLETVYFEKTRDIFHQT | 7.8 nM | 0.0163 s⁻¹ | 2.09e+06 M⁻¹ s⁻¹ | 25 nM | – |
| Cap1 (W251A)/Cap2 (complex) chain 1: MSSSKFEEVINKIINDSPPGELREVYDDLIKITSENSKNTILDAIENYNVQNCIPIEVNGNSVIISKYNKEGAKFFDPVNSVIFSVNHLERKGLDIEPYEFTHAKIEKGQLKELHDKLHEYLLQSFPGDVSFAVYPVPEEISKISIIIVSTKYNPNNFWNGHWRSSYIYDLETRELSGQISTQVHYYEDGNVSFQSGKDINQSNVDDVVCTIRDIETNFENDLDLSFFDLNEKQFKALRRRLPVTRSKINAGSAIGSYRLGKNAAEGK chain 2: MSDAQFDAALDLLRRLNPTTLQENLNNLIELQPNLAQDLLSSVDVPLSTQKDSADSNREYLCCDYNRDIDSFRSPWSNTYYPELSPKDLQDSPFPSAPLRKLEILANDSFDVYRDLYYEGGISSVYLWDLNEEDFNGHDFAGVVLFKKNQSDHSNWDSIHVFEVTTSPSSPDSFNYRVTTTIILHLDKTKTDQNSHMMLSGNLTRQTEKDIAIDMSRPLDVIFTSHVANLGSLIEDIESQMRNLLETVYFEKTRDIFHQTKNAAIASSAEEANKDAQAEVIRGLQSL | 91 nM | 0.0259 s⁻¹ | 300000 M⁻¹ s⁻¹ | 250 nM | – |
| Cap1 (R239A)/Cap2 (complex) chain 1: MSSSKFEEVINKIINDSPPGELREVYDDLIKITSENSKNTILDAIENYNVQNCIPIEVNGNSVIISKYNKEGAKFFDPVNSVIFSVNHLERKGLDIEPYEFTHAKIEKGQLKELHDKLHEYLLQSFPGDVSFAVYPVPEEISKISIIIVSTKYNPNNFWNGHWRSSYIYDLETRELSGQISTQVHYYEDGNVSFQSGKDINQSNVDDVVCTIRDIETNFENDLDLSFFDLNEKQFKALARRLPVTRSKINWGSAIGSYRLGKNAAEGK chain 2: MSDAQFDAALDLLRRLNPTTLQENLNNLIELQPNLAQDLLSSVDVPLSTQKDSADSNREYLCCDYNRDIDSFRSPWSNTYYPELSPKDLQDSPFPSAPLRKLEILANDSFDVYRDLYYEGGISSVYLWDLNEEDFNGHDFAGVVLFKKNQSDHSNWDSIHVFEVTTSPSSPDSFNYRVTTTIILHLDKTKTDQNSHMMLSGNLTRQTEKDIAIDMSRPLDVIFTSHVANLGSLIEDIESQMRNLLETVYFEKTRDIFHQTKNAAIASSAEEANKDAQAEVIRGLQSL | 176 nM | 0.0275 s⁻¹ | 156000 M⁻¹ s⁻¹ | 400 nM | – |
| Cap1(Δ239–268)/Cap2(Δ261–287) (complex) chain 1: MSSSKFEEVINKIINDSPPGELREVYDDLIKITSENSKNTILDAIENYNVQNCIPIEVNGNSVIISKYNKEGAKFFDPVNSVIFSVNHLERKGLDIEPYEFTHAKIEKGQLKELHDKLHEYLLQSFPGDVSFAVYPVPEEISKISIIIVSTKYNPNNFWNGHWRSSYIYDLETRELSGQISTQVHYYEDGNVSFQSGKDINQSNVDDVVCTIRDIETNFENDLDLSFFDLNEKQFKAL chain 2: MSDAQFDAALDLLRRLNPTTLQENLNNLIELQPNLAQDLLSSVDVPLSTQKDSADSNREYLCCDYNRDIDSFRSPWSNTYYPELSPKDLQDSPFPSAPLRKLEILANDSFDVYRDLYYEGGISSVYLWDLNEEDFNGHDFAGVVLFKKNQSDHSNWDSIHVFEVTTSPSSPDSFNYRVTTTIILHLDKTKTDQNSHMMLSGNLTRQTEKDIAIDMSRPLDVIFTSHVANLGSLIEDIESQMRNLLETVYFEKTRDIFHQT | – | – | – | – | ≥ 100000 nM |
